The target of one data set is T1, rPPR10 wild-type (maize, UniProt B8Y6I0 96-786).
T1 sequence: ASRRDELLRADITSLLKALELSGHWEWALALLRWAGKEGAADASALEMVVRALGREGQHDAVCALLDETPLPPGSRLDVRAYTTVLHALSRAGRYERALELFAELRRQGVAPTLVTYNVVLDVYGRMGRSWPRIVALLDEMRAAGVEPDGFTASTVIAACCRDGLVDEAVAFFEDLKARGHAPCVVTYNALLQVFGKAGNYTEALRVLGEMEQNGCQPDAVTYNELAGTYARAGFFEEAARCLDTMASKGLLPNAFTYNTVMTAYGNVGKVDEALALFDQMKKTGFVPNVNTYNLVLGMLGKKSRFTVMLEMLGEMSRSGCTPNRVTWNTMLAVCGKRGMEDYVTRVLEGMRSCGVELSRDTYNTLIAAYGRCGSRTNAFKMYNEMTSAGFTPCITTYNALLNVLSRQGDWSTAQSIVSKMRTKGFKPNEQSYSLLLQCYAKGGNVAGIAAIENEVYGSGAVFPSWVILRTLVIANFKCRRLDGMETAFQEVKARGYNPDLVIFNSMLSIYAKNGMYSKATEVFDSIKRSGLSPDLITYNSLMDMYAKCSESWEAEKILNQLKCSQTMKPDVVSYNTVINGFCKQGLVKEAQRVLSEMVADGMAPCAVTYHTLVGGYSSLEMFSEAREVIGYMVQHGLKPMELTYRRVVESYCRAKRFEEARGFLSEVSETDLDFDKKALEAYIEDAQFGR
Nature of the data set: SV-AUC; 3 uM protein, 1.5 or 3 uM RNA; 1:1 monomer complex; EMSA: radiolabeled RNA 15 pM, protein 0, 5, 10, 20 nM; binding buffer and temperature by reference [12]; protein stock in 400 mM NaCl, 50 mM Tris-HCl pH 7.5, 5. As to conditions: protein: recombinant; tags: MBP fusion removed by TEV cleavage; single-stranded.

A further data set concerns the target T2, PPR10 ND variant (maize, UniProt B8Y6I0 96-786, N349D).
T2 sequence: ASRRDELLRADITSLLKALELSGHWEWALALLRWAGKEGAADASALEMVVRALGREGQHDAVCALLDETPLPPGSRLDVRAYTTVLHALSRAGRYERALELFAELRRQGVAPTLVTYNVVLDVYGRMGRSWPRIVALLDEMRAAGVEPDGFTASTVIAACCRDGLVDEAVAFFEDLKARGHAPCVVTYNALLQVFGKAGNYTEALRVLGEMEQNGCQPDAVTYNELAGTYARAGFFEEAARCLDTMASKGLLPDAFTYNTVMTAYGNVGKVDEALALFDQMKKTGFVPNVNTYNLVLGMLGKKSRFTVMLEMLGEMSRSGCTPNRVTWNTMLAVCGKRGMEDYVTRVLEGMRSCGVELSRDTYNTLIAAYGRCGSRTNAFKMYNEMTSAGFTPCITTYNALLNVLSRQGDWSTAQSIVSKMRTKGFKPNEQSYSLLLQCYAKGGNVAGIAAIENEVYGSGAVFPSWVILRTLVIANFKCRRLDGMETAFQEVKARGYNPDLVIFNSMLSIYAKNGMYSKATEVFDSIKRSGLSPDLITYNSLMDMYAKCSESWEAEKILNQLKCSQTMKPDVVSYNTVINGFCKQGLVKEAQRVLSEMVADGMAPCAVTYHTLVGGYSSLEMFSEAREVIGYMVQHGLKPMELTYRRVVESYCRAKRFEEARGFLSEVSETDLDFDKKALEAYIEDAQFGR
In words: EMSA; EMSA: radiolabeled RNA 15 pM, protein 0, 5, 10, 20 nM; binding buffer and temperature by reference [12]; protein stock in 400 mM NaCl, 50 mM Tris-HCl pH 7.5, 5. Conditions: protein: recombinant; tags: MBP fusion removed by TEV cleavage; label: radiolabeled; single-stranded.

A further data set deals with T3, PPR10 NS variant (maize, UniProt B8Y6I0 96-786, D314S;N349S).
T3 sequence: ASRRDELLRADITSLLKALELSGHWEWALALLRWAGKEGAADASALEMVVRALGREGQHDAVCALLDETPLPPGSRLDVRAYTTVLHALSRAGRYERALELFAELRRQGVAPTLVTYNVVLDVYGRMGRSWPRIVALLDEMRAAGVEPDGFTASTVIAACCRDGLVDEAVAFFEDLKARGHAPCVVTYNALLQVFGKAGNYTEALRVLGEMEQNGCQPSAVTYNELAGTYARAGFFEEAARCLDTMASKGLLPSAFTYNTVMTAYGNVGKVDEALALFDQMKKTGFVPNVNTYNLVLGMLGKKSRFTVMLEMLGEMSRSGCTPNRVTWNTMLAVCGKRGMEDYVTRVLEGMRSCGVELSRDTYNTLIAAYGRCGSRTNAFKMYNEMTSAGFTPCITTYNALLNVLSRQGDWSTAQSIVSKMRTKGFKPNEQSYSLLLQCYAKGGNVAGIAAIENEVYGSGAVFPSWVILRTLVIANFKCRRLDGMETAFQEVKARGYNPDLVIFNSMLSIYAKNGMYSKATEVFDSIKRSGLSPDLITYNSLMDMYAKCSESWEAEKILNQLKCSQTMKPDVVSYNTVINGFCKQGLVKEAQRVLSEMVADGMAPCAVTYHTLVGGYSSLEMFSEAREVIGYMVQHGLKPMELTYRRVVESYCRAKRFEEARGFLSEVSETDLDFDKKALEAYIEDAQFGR
The description is as above. As to conditions: protein: recombinant; tags: MBP fusion removed by TEV cleavage; label: radiolabeled; single-stranded.

For data set [1], the target named is T4, PPR10 NN variant (maize, UniProt B8Y6I0 96-786, D314N).
T4 sequence: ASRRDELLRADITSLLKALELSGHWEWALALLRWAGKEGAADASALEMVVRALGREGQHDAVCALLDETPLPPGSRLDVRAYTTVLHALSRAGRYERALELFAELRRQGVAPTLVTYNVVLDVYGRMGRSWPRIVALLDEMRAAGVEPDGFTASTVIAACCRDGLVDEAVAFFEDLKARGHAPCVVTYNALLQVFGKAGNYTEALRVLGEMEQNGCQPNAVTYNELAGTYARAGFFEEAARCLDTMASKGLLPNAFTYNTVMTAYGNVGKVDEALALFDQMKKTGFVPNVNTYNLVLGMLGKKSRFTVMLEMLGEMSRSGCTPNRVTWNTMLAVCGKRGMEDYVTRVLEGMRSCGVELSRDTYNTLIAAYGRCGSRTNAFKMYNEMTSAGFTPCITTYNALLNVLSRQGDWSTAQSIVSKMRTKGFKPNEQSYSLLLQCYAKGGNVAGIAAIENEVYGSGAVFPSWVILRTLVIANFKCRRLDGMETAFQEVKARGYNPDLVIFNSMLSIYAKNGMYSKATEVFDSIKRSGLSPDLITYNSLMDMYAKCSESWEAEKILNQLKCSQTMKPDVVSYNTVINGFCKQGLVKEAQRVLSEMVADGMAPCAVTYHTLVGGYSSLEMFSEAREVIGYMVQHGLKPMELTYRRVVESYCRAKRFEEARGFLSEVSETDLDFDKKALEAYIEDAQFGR
Nature of the data set: EMSA; affinity similar to CC RNA; EMSA: radiolabeled RNA 15 pM, protein 0, 5, 10, 20 nM; binding buffer and temperature by reference [12]; protein stock in 400 mM NaCl, 50 mM Tris-HCl pH 7.5, 5. Conditions: protein: recombinant; tags: MBP fusion removed by TEV cleavage; label: radiolabeled; single-stranded.

Data set [2] deals with T4, PPR10 NN variant. Nature of the data set: EMSA; affinity similar to UU RNA; EMSA: radiolabeled RNA 15 pM, protein 0, 5, 10, 20 nM; binding buffer and temperature by reference [12]; protein stock in 400 mM NaCl, 50 mM Tris-HCl pH 7.5, 5. As to conditions: protein: recombinant; tags: MBP fusion removed by TEV cleavage; label: radiolabeled; single-stranded.

B1: PPR10 17-nt minimal RNA ligand (ssRNA)
RNA: GUAUCCUUAACCAUUUC
As for B1, the binding result with rPPR10 wild-type was “binds”.

B2: UU RNA (ssRNA)
RNA: GUAUUCUUAACCAUUUC
As to B2, the results for the Kd with PPR10 ND variant and with PPR10 NS variant were around 3 nM and 20 nM, respectively. For the same molecule, in the data set with PPR10 NN variant [1], the binding result is “binds”.

B3: CC RNA (ssRNA)
RNA: GUACCCUUAACCAUUUC
Consider B3, for which the values for the Kd with PPR10 ND variant and in the data set with PPR10 NS variant were 17 nM and 9 nM, respectively. In the data set with PPR10 NN variant [2], the binding result is reported as “binds”.

The values are drawn from publication PMC3420917, “A Combinatorial Amino Acid Code for RNA Recognition by Pentatricopeptide Repeat Proteins” (PLoS Genetics, 2012).
